{"source": "FireProtDB (doi:10.1073/pnas.90.18.8367)", "proteins": {"B1": {"name": "DNA-Binding protein G5P wild type, P69542 (protein)", "chain": "MIKVEIKPSQAQFTTRSGVSRQGKPYSLNEQLCYVDLGNEYPVLVKITLDEGQPAYAPGLYTVHLSSFKVGQFGSLMIDRLRLVPAK"}}, "details": "Enterobacteria phage fd; pH 7; 25 °C; GdnHCl; CD; MOPS 50 mM; NaCl 100 mM; reversible: yes; whole UniProt chain shown"}
{"protein": "B1", "values": [{"measurement": "unfolding free energy", "result": 9, "unit": "kcal/mol"}]}
